Experimental findings from patent US20220235118A1 (IMMUNOME, published 2022) are described below.

Usually EC50 stands for the midpoint of the concentration-response curve. The low end stands for an effect from little substance, the high end for a need for much substance.

For experiment [1], the target named is T1, SARS-CoV-2 Spike RBD K417N, E484K, N501Y (SARS-CoV-2, UniProt P0DTC2 319-541).
T1 construct: domain: RBD; also called S. African partial (K417N, E484K, N501Y)
Nature of the experiment: HTRF, soluble RBD construct.

Experiment [2] deals with T2, SARS-CoV-2 Spike RBD K417T, E484K, N501Y (SARS-CoV-2, UniProt P0DTC2 319-541).
T2 construct: domain: RBD; also called Brazilian (K417T, E484K, N501Y)
In words: HTRF, soluble RBD construct.

Experiment [3] has as its target T3, SARS-CoV-2 Spike S1 domain ΔHV69/70, Y453F, D614G (SARS-CoV-2, UniProt P0DTC2 16-685).
T3 construct: domain: S1; also called Denmark (ΔHV69/70, Y453F, D614G); DHV69/70, Y453F, D614G
In words: HTRF, soluble S1 construct. On the technique in general: TR-FRET usually uses a lanthanide donor and a delayed reading to cut background.

In experiment [4] the target is T4, SARS-CoV-2 Spike S1 domain ΔHV69/70, N501Y, D614G (SARS-CoV-2, UniProt P0DTC2 16-685).
T4 construct: domain: S1; also called U.K. partial (ΔHV69/70, N501Y D614G)
In words: HTRF, soluble S1 construct.

Experiment [5] concerns the target T5, SARS-CoV-2 Spike S1 domain K417N, E484K, N501Y, D614G (SARS-CoV-2, UniProt P0DTC2 16-685).
T5 construct: domain: S1; also called S. African (K417N, E484K, N501Y, D614G); B.1.351
In words: HTRF, soluble S1 construct.

The target of experiment [6] is T6, SARS-CoV-2 Spike S1 domain A222S, D614G (SARS-CoV-2, UniProt P0DTC2 16-685).
T6 construct: domain: S1; also called Spanish (A222S, D614G)
Nature of the experiment: HTRF, soluble S1 construct.

Experiment [7] deals with T7, SARS-CoV-2 Spike S1 domain ΔHV69/70, ΔY144, N501Y, A570D, D614G, P681H (SARS-CoV-2, UniProt P0DTC2 16-685).
T7 construct: domain: S1; also called U.K. (B.1.1.7); DHV69/70, DY144, N501Y, A570D, D614G, P681H
Nature of the experiment: HTRF, soluble S1 construct.

For experiment [8], the target named is T2, SARS-CoV-2 Spike RBD K417T, E484K, N501Y. Nature of the experiment: HTRF, EC50 of binding, soluble RBD construct.
Experiment [9] concerns the target T8, SARS-CoV-2 Spike-RBD Omicron variant (SARS-CoV-2, UniProt P0DTC2 319-541).
T8 construct: domain: RBD; also called soluble RBD domain of the Spike protein containing mutations found in the Omicron variant
In words: HTRF binding assay on soluble Spike-RBD B.1.1.529; % binding relative to Ref.

B1: PR193_00018 (antibody, V domains shown)
VH: EVQLVESGGGLVQPGGSLRLSCSASGFTFSSFWMSWVRQAPGKGLEWVATIREDGSEKYYVDSVKGRFSISRDNAKNSLYLQMNSLRAEDTAVYYCARSKWLRGSFDYWGQGTLVTVSS
VL: NFMLTQPHSVSESPGKTVTISCTRRSGSIASNYVQWYQQRPGSAPTTVIYEDNQRPSGVPDRFSGSIDSSSNSASLTISGLQTEDEADYYCQSYDSSNPPGASWVFGGGTKLTVL
notes: also called IMM20184; IMM200184
Regarding B1, the EC50 turned out to be 14.5 pM in experiment [1]; 18.3 pM in experiment [2]; 31.6 pM in [3]; 14.3 pM in experiment [4]; 26.7 pM in [5]; 26.9 pM in [6]. For the same molecule, a half-maximal effect in experiment [7] (EC50) was put at 45.5 pM.

B2: PR194_00232 (antibody, V domains shown)
VH: EVQLVESGGGLVQPGGSLRLSCSASGFTVSSNYMSWVRQAPRKGLEWVSVIYAGGSTFYADSVKGRFTISRDNSKNTLLLQMNSLRAEDTAVYYCARDRGGYLDYWGQGTLVTVSS
VL: DIQMTQSPSSLSASVGDRVTITCRASQGISNYLAWYQQKPGKVPKLLIYAASTLQSGVPSRFSGSGSGTDFTLTISSLQPEDVATYYCQKYNSAPGLTFGGGTKVEIK
notes: also called IMM20190; PR194_00190
Turning to B2, the binding result in experiment [8] and in experiment [9] was “no binding” throughout. For the same molecule, the EC50 in experiment [3] was 47.2 pM; in experiment [4], 396 pM; in experiment [5], 230 pM; in experiment [6], 49.1 pM; in experiment [7] it was > 500 pM.

B3: PR200_00622 (antibody, V domains shown)
VH: QVQLVESGGGVVQPGRSLRLSCTASGFTFSTYGMHWVRQAPGKGLEWVAVISYDGSSKHYAESVKGRFTISRDNSNNTLYLQMNRLRAEDTAVYYCARDGQPPGWGNYFDYWGQGTLVTVAS
VL: SYVLTQPPSVSVAPGKTARITCGGNGIGSKSVYWYQQKPGQAPEVVVYDDSDRPSGIPERFSGSNSGNTATLTISRVEAGDEADYYCQVWDSSSDPWVFGGGTKLTVL
notes: also called IMM20253; PR200_00253
Take B3: the EC50 amounted to 19.7 pM in [1]; 23.6 pM in experiment [2]; 66.4 pM in experiment [3]; 21.6 pM in experiment [4]; 24.8 pM in experiment [5]; 44.9 pM in experiment [6]. In experiment [7], this molecule gave an EC50 of 62.4 pM.
